According to PMC7504508 (International Journal of Molecular Sciences, 2020):

Target: calmodulin (UniProt P0DP23 1-149)
Assay: SPR; GST-Sumo-Cx35 fusion proteins captured by immobilised anti-GST antibodies on a CM5 chip (Biacore 2000); calmodulin as analyte, 3 nM to 30 µM; GST-Sumo reference flowcell subtracted; 1 mM free Ca2+, 0.5 mM free Mg2+, 140 mM KCl, 10 mM MOPS pH 7.2, 0.05% Tween 20; first order ligand binding model
Conditions: both partners purified

Kd: 6.29 µM
B1: GST-Sumo fusion protein of the perch Connexin 35 intracellular loop (amino acids 101-192) (domain or fragment)
chain: SAKQKERRYSTVYLTLDKDQDSLKRDESKKIKNTIVNGVLQNTENSTKEAEPDCLEVKEIPNSAMRTTKSKMRRQEGISRFYIIQVVFRNAL
